{"source": "paper PMC8352894", "about": "“A KLK4 proteinase substrate capture approach to antagonize PAR1” (Scientific Reports, 2021)", "binders": {"B1": {"name": "biotinylated PAR1 peptide (biotin-31SKATNATLDPRSFLLRNPNDKYEPFWED58-FITC) (peptide)", "peptide": "Biotin-SKATNATLDPRSFLLRNPNDKYEPFWED-{FITC′}", "notes": "also called PAR1 extracellular peptide; source: synthetic peptide, bought: Peptron, Daejeon, Korea (>95%)"}}, "key": {"KLK4_(S207A)": {"molecular_target": "T1, KLK4_(S207A) (human, UniProt Q9Y5K2 31-254, S207A)", "T1 construct": "Kallikrein-related peptidase 4 (KLK4), human, UniProtKB Q9Y5K2; peptidase domain left after thermolysin removed the pro-peptide S27CSQ30 (begins at residue 31); S207 is Ser195 in chymotrypsin numbering; also called KLK_(S207); not shown: FLAG, N-terminal, cleaved", "T1 sequence (Q9Y5K2 31-254 S207A)": "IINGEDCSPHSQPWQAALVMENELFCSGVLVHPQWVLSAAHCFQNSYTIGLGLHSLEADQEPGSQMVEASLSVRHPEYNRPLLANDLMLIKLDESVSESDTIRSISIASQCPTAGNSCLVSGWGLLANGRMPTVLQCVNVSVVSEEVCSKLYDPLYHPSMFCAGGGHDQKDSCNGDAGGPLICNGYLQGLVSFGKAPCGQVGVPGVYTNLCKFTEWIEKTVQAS", "test": "SPR; ProteOn XPR36; biotinylated PAR1 peptide immobilised on an NLC chip via NeutrAvidin-biotin (2600 RU); KLK4 variants flowed over in PBST at 30 µL/min for 818 s, dissociation 30 min (166 min for KLK4 S207A,L185D); 25 °C; empty channel subtracted; 1:1 Langmuir kinetic model", "conditions": "both partners purified"}, "KLK4_(S207A,L185D)": {"molecular_target": "T2, KLK4_(S207A,L185D) (human, UniProt Q9Y5K2 31-254, S207A | L185D)", "T2 construct": "Kallikrein-related peptidase 4 (KLK4), human, UniProtKB Q9Y5K2; peptidase domain left after thermolysin removed the pro-peptide S27CSQ30 (begins at residue 31); L185D chosen by in-silico saturation mutagenesis; also called KLK4_(L185D,S207A); KLK_(S207,L185D); not shown: FLAG, N-terminal, cleaved", "T2 sequence (Q9Y5K2 31-254 L185D/S207A)": "as the sequence (Q9Y5K2 31-254 S207A) above, with L155D counted along it", "test": "SPR; ProteOn XPR36; biotinylated PAR1 peptide immobilised on an NLC chip via NeutrAvidin-biotin (2600 RU); KLK4 variants flowed over in PBST at 30 µL/min for 818 s, dissociation 30 min (166 min for KLK4 S207A,L185D); 25 °C; empty channel subtracted; 1:1 Langmuir kinetic model", "conditions": "both partners purified"}}, "note": "Primed or numbered codes have the meaning given here. The star is where a group is joined. Biotin = O=C1N[C@H]2[C@H](CS[C@H]2CCCCC(=O)*)N1; FITC′ = not defined here"}
{"binder": "B1", "values": [{"measurement": "Kd", "setting": "KLK4_(S207A)", "value": 1120, "unit": "nM"}, {"measurement": "koff", "setting": "KLK4_(S207A)", "value": 0.000391, "unit": "s⁻¹"}, {"measurement": "kon", "setting": "KLK4_(S207A)", "value": 349, "unit": "M⁻¹ s⁻¹"}, {"measurement": "Kd", "setting": "KLK4_(S207A,L185D)", "value": 55.5, "unit": "nM"}, {"measurement": "koff", "setting": "KLK4_(S207A,L185D)", "value": "3.17e-06", "unit": "s⁻¹"}, {"measurement": "kon", "setting": "KLK4_(S207A,L185D)", "value": 57, "unit": "M⁻¹ s⁻¹"}]}
